Results published in publication PMC4678419.

Experiments:
[1] = target: biotin-labeled surface proteins from human monocytes; assay: SPR; Biacore 3000; biotin-labeled surface proteins from THP-1 cells (3.2 kRU) or human monocytes (2.3 kRU) captured on a SA chip; 25 nM S100A8, S100A9 or S100A8/S100A9 injected 3 min at 20 uL/min in HBS-P with 1 mM Ca and 20 uM Zn; fit to a 1:1 model
[2] = target: biotin-labeled surface proteins from THP-1 cells; assay: as above

Kd [1]: 2.3 nM | Kd [2]: 3.3 nM
B1: S100A9 (recombinant human S100A9, produced at Active Biotech AB) (natural protein)
chain: MTCKMSQLERNIETIINTFHQYSVKLGHPDTLNQGEFKELVRKDLQNFLKKENKNEKVIEHIMEDLDTNADKQLSFEEFIMLMARLTWASHEKMHEGDEGPGHHHKPGLGEGTP
